According to patent publication US20190100594A1 (INHIBRX, published 2019):
Like-named read-outs stand apart in the source and are kept apart here.

T1: human GITR-CHO (human, UniProt Q9Y5U5)
T1 construct: expressed on the surface of CHO cells, construct not described; also called human GITR expressed on the surface of CHO cells
T1 sequence (looked up): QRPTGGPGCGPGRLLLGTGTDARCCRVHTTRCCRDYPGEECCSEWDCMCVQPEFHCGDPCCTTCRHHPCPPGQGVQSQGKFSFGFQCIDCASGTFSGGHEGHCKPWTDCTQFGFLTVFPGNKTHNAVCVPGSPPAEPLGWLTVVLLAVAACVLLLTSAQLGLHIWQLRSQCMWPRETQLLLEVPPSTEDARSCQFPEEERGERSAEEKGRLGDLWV


How the values were obtained:
human GITR-CHO [1] = molecular target: T1, human GITR-CHO; assay: flow cytometry on human GITR-CHO cells
cyno GITR-CHO [2] = molecular target: T2, cyno GITR-CHO (cynomolgus monkey); assay: flow cytometry on cyno GITR-CHO cells
T2 construct: expressed on the surface of CHO cells, construct not described; also called cynomolgus GITR expressed on the surface of CHO cells

human GITR-CHO [3] = molecular target: T1, human GITR-CHO; assay: flow cytometry on human GITR-CHO cells; remark: listed apart in the source
cyno GITR-CHO [4] = molecular target: T2, cyno GITR-CHO; assay: flow cytometry on cyno GITR-CHO cells; remark: listed apart in the source
human GITR-CHO [5] = molecular target: T1, human GITR-CHO; assay: flow cytometry on human GITR-CHO cells; remark: listed apart in the source
human GITR-CHO [6] = molecular target: T1, human GITR-CHO; assay: flow cytometry on human GITR-CHO cells; remark: listed apart in the source

EC50 (read off the curve) (human GITR-CHO [1])	EC50 (read off the curve) (cyno GITR-CHO [2])	EC50 (read off the curve) (human GITR-CHO [3])	EC50 (read off the curve) (cyno GITR-CHO [4])	Binder	other results
~2 nM	1 to 2 nM	–	–	hzCC04v5.5 (VHH, sheet prints hzCC04, text hzC04; also called hzC04v5.5) VHH: EVQLLESGGGEVQPGGSLRLSCAASGFTFSTHGMDWFRQAPGKDLEWVSAIQSGGSWTSYASSVKGRFTISRDNAKNTLYLQMQQLRAEDTAVYWCQNRVTRGQGTLVTV	–
~2 nM	1 to 2 nM	–	–	hzCC04v5.9 (VHH, sheet prints hzCC04, text hzC04; also called hzC04v5.9) VHH: EVQLLESGGGEVQPGGSLRLSCAASGFTFSTHGMDWFRQAPGKDLEWVSAIQSGGSWTSYASSVKGRFTISRDNAKNTLYLQMDDLRAEDTAVYWCQNRVTRGQGTLVTV	–
~2 nM	1 to 2 nM	–	–	hzCC04v5.8 (VHH, sheet prints hzCC04, text hzC04; also called hzC04v5.8) VHH: EVQLLESGGGEVQPGGSLRLSCAASGFTFSTHGMDWFRQAPGKDLEWVSAIQSGGSWTSYASSVKGRFTISRDNAKNTLYLQMNDLRAEDTAVYWCQNRVTRGQGTLVTV	–
~2 nM	1 to 2 nM	–	–	hzCC04v5.6 (VHH, sheet prints hzCC04, text hzC04; also called hzC04v5.6) VHH: EVQLLESGGGEVQPGGSLRLSCAASGFTFSTHGMDWFRQAPGKDLEWVSAIQSGGSWTSYASSVKGRFTISRDNAKNTLYLQMQNLRAEDTAVYWCQNRVTRGQGTLVTV	–
~2 nM	1 to 2 nM	–	–	hzCC04v5.7 (VHH, sheet prints hzCC04, text hzC04; also called hzC04v5.7) VHH: EVQLLESGGGEVQPGGSLRLSCAASGFTFSTHGMDWFRQAPGKDLEWVSAIQSGGSWTSYASSVKGRFTISRDNAKNTLYLQMDNLRAEDTAVYWCQNRVTRGQGTLVTV	–
~2 nM	1 to 2 nM	–	–	hzCC04v5.12 (VHH, sheet prints hzCC04, text hzC04; also called hzC04v5.12) VHH: EVQLLESGGGEVQPGGSLRLSCAASGFTFSTHGMDWFRQAPGKDLEWVSAIQSGGSWTSYASSVKGRFTISRDNAKNTLYLQMSNLRAEDTAVYWCQNRVTRGQGTLVTV	–
~2 nM	1 to 2 nM	–	–	hzCC04v5.11 (VHH, sheet prints hzCC04, text hzC04; also called hzC04v5.11) VHH: EVQLLESGGGEVQPGGSLRLSCAASGFTFSTHGMDWFRQAPGKDLEWVSAIQSGGSWTSYASSVKGRFTISRDNAKNTLYLQMNQLRAEDTAVYWCQNRVTRGQGTLVTV	–
~2 nM	1 to 2 nM	–	–	hzCC04v5.10 (VHH, sheet prints hzCC04, text hzC04; also called hzC04v5.10) VHH: EVQLLESGGGEVQPGGSLRLSCAASGFTFSTHGMDWFRQAPGKDLEWVSAIQSGGSWTSYASSVKGRFTISRDNAKNTLYLQMQDLRAEDTAVYWCQNRVTRGQGTLVTV	–
–	–	1 to 2 nM	–	hzC06v3 (VHH) VHH: EVQLLESGGGEVQPGGSLRLSCAASGSVFSIDAMGWYRQAPGKQRELVAVLSGISSAKYAESVKGRFTISRDNAKNTLYLQMSSLRAEDTAVYYCYADVSTGWGRDAHGYWGQGTLVTV	–
–	–	1 to 2 nM	~4 nM	hzC06v2.2 (VHH) VHH: EVQLLESGGGEVQPGGSLRLSCAASGSVFSIDAMGWYRQAPGKGRELVAVLSGISSATYAESVKGRFTISRDNAKNTLYLQMSSLRAEDTAVYYCYADVSTGWGRDAHGYWGQGTLVTV	–
–	–	1 to 2 nM	~4 nM	hzC06v2.3 (VHH) VHH: EVQLLESGGGEVQPGGSLRLSCAASGSVFSIDAMGWYRQAPGKQRELVAVLSGISSATYAESVKGRFTISRDNAKNTLYLQMSSLRAEDTAVYYCYADVSTGWGRDAHGYWGQGTLVTV	–
–	–	–	–	hzC06v3.1 (VHH) VHH: EVQLLESGGGEVQPGGSLRLSCAASGSVFSIDAMGWYRLAPGQQRELVAVLSGISSAKYAESVKGRFTISRDNAKNTLYLQMSSLRAEDTAVYYCYADVSTGWGRDAHGYWGQGTLVTV	EC50 (read off the curve) (human GITR-CHO [5]): ~4 nM
–	–	1 to 2 nM	~8 nM	hzC06v1.1 (VHH) VHH: EVQLLESGGGEVQPGGSLRLSCAASGSVFSIDAMGWYRQAPGKGLELVSALSGISSATYAESVKGRFTISRDNAKNTLYLQMSSLRAEDTAVYYCYADVSTGWGRDAHGYWGQGTLVTV	–
–	–	1 to 2 nM	~4 nM	hzC06v1.3 (VHH) VHH: EVQLLESGGGEVQPGGSLRLSCAASGSVFSIDAMGWYRQAPGKQRELVSALSGISSATYAESVKGRFTISRDNAKNTLYLQMSSLRAEDTAVYYCYADVSTGWGRDAHGYWGQGTLVTV	–
–	–	–	–	hzC06v3.2 (VHH) VHH: EVQLLESGGGEVQPGGSLRLSCAASGSVFSIDAMGWYRQAPGKQRELVAVLSGISSAKYADSVKGRFTISGDNAKNTLYLQMSSLRAEDTAVYYCYADVSTGWGRDAHGYWGQGTLVTV	EC50 (read off the curve) (human GITR-CHO [5]): ~4 nM
–	–	–	–	hzC06v3.8 (VHH) VHH: EVQLLESGGGEVQPGGSLRLSCAASGSVFSIDAMGWYRQAPGKQRELVAVLSGISSAKYAASAPGRFTISRDAVENTVYLQMSSLRAEDTAVYYCYADVSTGWGRDAHGYWGQGTLVTV	EC50 (read off the curve) (human GITR-CHO [6]): 1 to 2 nM
–	–	1 to 2 nM	~4 nM	hzC06v1.2 (VHH) VHH: EVQLLESGGGEVQPGGSLRLSCAASGSVFSIDAMGWYRQAPGKGRELVSALSGISSATYAESVKGRFTISRDNAKNTLYLQMSSLRAEDTAVYYCYADVSTGWGRDAHGYWGQGTLVTV	–
–	–	–	–	hzC06v3.11 (VHH) VHH: EVQLLESGGGEVQPGGSLRLSCAASGSVFSIDAMGWYRQAPGKQRELVAVLSGISSAKYADAVEGRFTISRASAPNTVYLQMSSLRAEDTAVYYCYADVSTGWGRDAHGYWGQGTLVTV	EC50 (read off the curve) (human GITR-CHO [6]): 1 to 2 nM
–	–	–	–	hzC06v3.5 (VHH) VHH: EVQLLESGGGEVQPGGSLRLSCAASGSVFSIDAMGWYRQAPGKQRELVAVLSGISSAKYAESVKGRFTISRASAPNTLYLQMSSLRAEDTAVYYCYADVSTGWGRDAHGYWGQGTLVTV	EC50 (read off the curve) (human GITR-CHO [5]): ~4 nM
–	–	1 to 2 nM	~4 nM	hzC06v2.4 (VHH) VHH: EVQLLESGGGEVQPGGSLRLSCAASGSVFSIDAMGWYRQAPGQQRELVAVLSGISSATYAESVKGRFTISRDNAKNTLYLQMSSLRAEDTAVYYCYADVSTGWGRDAHGYWGQGTLVTV	–
–	–	1 to 2 nM	~4 nM	hzC06v1.4 (VHH) VHH: EVQLLESGGGEVQPGGSLRLSCAASGSVFSIDAMGWYRQAPGQQRELVSALSGISSATYAESVKGRFTISRDNAKNTLYLQMSSLRAEDTAVYYCYADVSTGWGRDAHGYWGQGTLVTV	–
–	–	1 to 2 nM	–	hzC06v2.1 (VHH) VHH: EVQLLESGGGEVQPGGSLRLSCAASGSVFSIDAMGWYRQAPGKGLELVAVLSGISSATYAESVKGRFTISRDNAKNTLYLQMSSLRAEDTAVYYCYADVSTGWGRDAHGYWGQGTLVTV	–
